{"source": "patent US20200061156A1", "about": "(UNIVERSITY OF QUEENSLAND, published 2020)", "key": {"[1]": {"biological_target": "rat acid sensing ion channel subtype 1a (homomeric, expressed in Xenopus laevis oocytes) (rat) (UniProt P55926)", "sequence (P55926 whole entry)": "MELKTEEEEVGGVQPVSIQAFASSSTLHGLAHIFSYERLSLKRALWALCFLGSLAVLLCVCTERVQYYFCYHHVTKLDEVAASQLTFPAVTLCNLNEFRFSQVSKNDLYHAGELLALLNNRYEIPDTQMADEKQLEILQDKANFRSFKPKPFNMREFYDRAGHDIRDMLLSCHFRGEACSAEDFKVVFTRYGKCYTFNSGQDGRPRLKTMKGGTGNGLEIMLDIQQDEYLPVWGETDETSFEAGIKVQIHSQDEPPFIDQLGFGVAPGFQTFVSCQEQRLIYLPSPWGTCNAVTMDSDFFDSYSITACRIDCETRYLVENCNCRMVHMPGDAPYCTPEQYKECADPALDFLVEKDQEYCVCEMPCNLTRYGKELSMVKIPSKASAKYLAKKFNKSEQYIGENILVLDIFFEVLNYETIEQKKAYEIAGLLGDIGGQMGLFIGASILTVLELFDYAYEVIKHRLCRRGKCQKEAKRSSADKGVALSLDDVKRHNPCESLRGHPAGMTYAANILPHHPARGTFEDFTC", "experiment": "inhibition of rASIC1a currents in Xenopus oocytes"}, "[2]": {"biological_target": "rat acid sensing ion channel subtype 1a (homomeric, expressed in Xenopus laevis oocytes) (rat) (UniProt P55926)", "experiment": "cell-based or functional assay"}, "[3]": {"biological_target": "T1, rat acid sensing ion channel subtype 2a (homomeric, expressed in Xenopus laevis oocytes) (rat, UniProt Q62962 1-512)", "T1 sequence": "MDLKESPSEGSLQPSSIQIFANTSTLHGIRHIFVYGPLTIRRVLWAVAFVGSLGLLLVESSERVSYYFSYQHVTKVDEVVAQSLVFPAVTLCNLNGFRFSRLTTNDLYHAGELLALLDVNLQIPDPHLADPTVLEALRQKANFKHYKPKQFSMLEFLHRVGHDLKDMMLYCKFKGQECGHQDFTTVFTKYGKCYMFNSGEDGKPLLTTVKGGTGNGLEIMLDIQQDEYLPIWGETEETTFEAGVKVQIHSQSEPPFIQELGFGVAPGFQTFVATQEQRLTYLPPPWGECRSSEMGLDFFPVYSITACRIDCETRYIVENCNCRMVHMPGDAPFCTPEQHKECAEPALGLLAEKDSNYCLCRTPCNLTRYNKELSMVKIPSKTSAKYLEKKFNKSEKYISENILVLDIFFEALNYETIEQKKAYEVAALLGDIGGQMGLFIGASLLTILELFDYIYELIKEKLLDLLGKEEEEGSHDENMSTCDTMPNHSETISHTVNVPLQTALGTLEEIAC", "experiment": "cell-based or functional assay"}, "[4]": {"biological_target": "T2, rat acid sensing ion channel subtype 3 (homomeric, expressed in Xenopus laevis oocytes) (rat, UniProt O35240 1-533)", "T2 sequence": "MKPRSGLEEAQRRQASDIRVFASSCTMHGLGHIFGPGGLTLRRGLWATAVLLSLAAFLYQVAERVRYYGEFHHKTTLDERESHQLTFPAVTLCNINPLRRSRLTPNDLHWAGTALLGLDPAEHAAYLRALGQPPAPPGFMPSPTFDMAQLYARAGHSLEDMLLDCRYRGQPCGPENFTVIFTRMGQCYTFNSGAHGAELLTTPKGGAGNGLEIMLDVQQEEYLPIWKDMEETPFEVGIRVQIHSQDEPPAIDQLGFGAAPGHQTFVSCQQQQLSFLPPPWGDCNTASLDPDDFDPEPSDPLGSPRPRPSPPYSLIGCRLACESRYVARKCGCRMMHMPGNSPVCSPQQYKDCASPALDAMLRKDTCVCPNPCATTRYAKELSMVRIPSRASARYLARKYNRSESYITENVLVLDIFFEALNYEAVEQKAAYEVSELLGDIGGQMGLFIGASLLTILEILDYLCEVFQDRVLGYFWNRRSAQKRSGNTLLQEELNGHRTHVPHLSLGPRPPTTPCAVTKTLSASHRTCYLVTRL", "experiment": "cell-based or functional assay"}, "[5]": {"biological_target": "rat acid sensing ion channel subtype 1b (homomeric, expressed in Xenopus laevis oocytes) (rat), P55926", "sequence (P55926 whole entry)": "as the sequence (P55926 whole entry) above", "experiment": "cell-based or functional assay"}, "[6]": {"biological_target": "human acid sensing ion channel subtype 1a (homomeric, expressed in Xenopus laevis oocytes) (human), P78348", "sequence (P78348 whole entry)": "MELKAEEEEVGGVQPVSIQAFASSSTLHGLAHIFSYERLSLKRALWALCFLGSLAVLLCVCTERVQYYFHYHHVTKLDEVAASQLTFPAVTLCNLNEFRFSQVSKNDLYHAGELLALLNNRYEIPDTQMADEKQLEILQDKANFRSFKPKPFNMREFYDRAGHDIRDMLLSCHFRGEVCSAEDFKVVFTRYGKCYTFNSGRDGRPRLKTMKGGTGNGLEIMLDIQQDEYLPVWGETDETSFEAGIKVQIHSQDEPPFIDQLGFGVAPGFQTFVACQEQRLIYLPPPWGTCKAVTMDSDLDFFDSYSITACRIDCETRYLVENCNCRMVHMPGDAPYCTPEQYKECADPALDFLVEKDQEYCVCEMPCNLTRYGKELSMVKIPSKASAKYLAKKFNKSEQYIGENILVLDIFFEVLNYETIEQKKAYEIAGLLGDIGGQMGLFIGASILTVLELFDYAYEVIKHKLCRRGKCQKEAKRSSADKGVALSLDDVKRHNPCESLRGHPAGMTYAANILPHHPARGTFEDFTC", "experiment": "cell-based or functional assay"}}, "data": [{"molecule": "recombinant Hi1a (π-hexatoxin-Hi1a) expressed in E. coli", "values": [{"measurement": "IC50", "setting": "[1]", "result": 0.464, "unit": "nM"}]}, {"molecule": "C-terminal ICK domain of Hi1a (Hi1a-C), produced in E. coli", "values": [{"measurement": "IC50", "setting": "[1]", "result": "> 30000", "unit": "nM"}]}, {"molecule": "N-terminal ICK domain of Hi1a (Hi1a-N), produced in E. coli (peptide)", "values": [{"measurement": "IC50 (inhibition of acid-evoked current, TEVC, Xenopus oocytes)", "setting": "[2]", "result": 1000, "unit": "nM"}, {"measurement": "fold lower potency than PcTx1 or full-length Hi1a", "setting": "[2]", "result": 1000, "unit": "fold"}]}, {"molecule": "recombinant Hi1d (peptide)", "values": [{"measurement": "% Residual Current", "setting": "[2]", "result": 0, "unit": "%"}, {"measurement": "IC50 (inhibition of acid-evoked current, TEVC, Xenopus oocytes)", "setting": "[2]", "result": 193, "unit": "nM"}, {"measurement": "time to full reversal of inhibition on washout (TEVC)", "setting": "[2]", "result": "< 60", "unit": "s"}]}, {"molecule": "recombinant Hi1a (π-hexatoxin-Hi1a) expressed in E. coli (peptide)", "values": [{"measurement": "% Residual Current", "setting": "[2]", "result": 30, "unit": "%"}, {"measurement": "IC50 (inhibition of acid-evoked current, TEVC, Xenopus oocytes)", "setting": "[2]", "result": 0.46, "unit": "nM"}]}, {"molecule": "recombinant engineered peptide #1 (EP 1), two copies of PcTx1 joined by a linker (designed binder) peptide: SEDCIPKWKGCVNRHGDCCEGLECWKRRRSFEVCVPKTEDCIPKWKGCVNRHGDCCEGLECWKRRRSFEVCVPKTPKT", "values": [{"measurement": "% Residual Current", "setting": "[2]", "result": 0, "unit": "%"}, {"measurement": "IC50 (inhibition of acid-evoked current, TEVC, Xenopus oocytes)", "setting": "[2]", "result": 64, "unit": "nM"}, {"measurement": "fold increase in IC50 against wild-type Hi1a", "setting": "[2]", "result": 200, "unit": "fold"}]}, {"molecule": "recombinant engineered peptide #2 (EP 2), as EP 1 with a Glu to Gly mutation in the linker (designed binder) peptide: SEDCIPKWKGCVNRHGDCCEGLECWKRRRSFEVCVPKTGDCIPKWKGCVNRHGDCCEGLECWKRRRSFEVCVPKTPKT", "values": [{"measurement": "% Residual Current", "setting": "[2]", "result": 0, "unit": "%"}, {"measurement": "IC50 (inhibition of acid-evoked current, TEVC, Xenopus oocytes)", "setting": "[2]", "result": 215, "unit": "nM"}, {"measurement": "fold increase in IC50 against wild-type Hi1a", "setting": "[2]", "result": 500, "unit": "fold"}]}, {"molecule": "recombinant Hi1a (π-hexatoxin-Hi1a) expressed in E. coli (peptide) peptide: SNECIRKWLSCVDRKNDCCEGLECYKRRHSFEVCVPIPGFCLVKWKQCDGRERDCCAGLECWKRSGNKSSVCAPIT", "values": [{"measurement": "fold higher potency at ASIC1a over this subtype (from 1 µM Hi1a, TEVC)", "setting": "[3]", "result": "> 2000", "unit": "fold"}, {"measurement": "selectivity for ASIC1a over this subtype (from 30 nM Hi1a, TEVC)", "setting": "[3]", "result": "≥ 50", "unit": "fold"}, {"measurement": "fold higher potency at ASIC1a over this subtype (from 1 µM Hi1a, TEVC)", "setting": "[4]", "result": "> 2000", "unit": "fold"}, {"measurement": "selectivity for ASIC1a over this subtype (from 30 nM Hi1a, TEVC)", "setting": "[4]", "result": "≥ 50", "unit": "fold"}, {"measurement": "fold higher potency at ASIC1a over this subtype (from 1 µM Hi1a, TEVC)", "setting": "[5]", "result": "> 2000", "unit": "fold"}, {"measurement": "selectivity for ASIC1a over this subtype (from 30 nM Hi1a, TEVC)", "setting": "[5]", "result": "> 50", "unit": "fold"}, {"measurement": "% Residual Current", "setting": "[6]", "result": 20, "unit": "%"}, {"measurement": "IC50 (inhibition of acid-evoked current, TEVC, Xenopus oocytes)", "setting": "[6]", "result": 0.59, "unit": "nM"}]}]}
